Results taken from patent US20240336672A1 (INSTITUT PASTEUR, published 2024).
Where “and” joins values, the source holds several entries; their conditions need not be identical. Equal values may be shown once.

Experiments:
[1] = target: T1, CoV-HKU1 Spike ectodomain (HKU1-CoV, UniProt Q0ZME7 14-1276); experiment: ELISA, coated antigen; further: test concentration or dose not given here
T1 chain: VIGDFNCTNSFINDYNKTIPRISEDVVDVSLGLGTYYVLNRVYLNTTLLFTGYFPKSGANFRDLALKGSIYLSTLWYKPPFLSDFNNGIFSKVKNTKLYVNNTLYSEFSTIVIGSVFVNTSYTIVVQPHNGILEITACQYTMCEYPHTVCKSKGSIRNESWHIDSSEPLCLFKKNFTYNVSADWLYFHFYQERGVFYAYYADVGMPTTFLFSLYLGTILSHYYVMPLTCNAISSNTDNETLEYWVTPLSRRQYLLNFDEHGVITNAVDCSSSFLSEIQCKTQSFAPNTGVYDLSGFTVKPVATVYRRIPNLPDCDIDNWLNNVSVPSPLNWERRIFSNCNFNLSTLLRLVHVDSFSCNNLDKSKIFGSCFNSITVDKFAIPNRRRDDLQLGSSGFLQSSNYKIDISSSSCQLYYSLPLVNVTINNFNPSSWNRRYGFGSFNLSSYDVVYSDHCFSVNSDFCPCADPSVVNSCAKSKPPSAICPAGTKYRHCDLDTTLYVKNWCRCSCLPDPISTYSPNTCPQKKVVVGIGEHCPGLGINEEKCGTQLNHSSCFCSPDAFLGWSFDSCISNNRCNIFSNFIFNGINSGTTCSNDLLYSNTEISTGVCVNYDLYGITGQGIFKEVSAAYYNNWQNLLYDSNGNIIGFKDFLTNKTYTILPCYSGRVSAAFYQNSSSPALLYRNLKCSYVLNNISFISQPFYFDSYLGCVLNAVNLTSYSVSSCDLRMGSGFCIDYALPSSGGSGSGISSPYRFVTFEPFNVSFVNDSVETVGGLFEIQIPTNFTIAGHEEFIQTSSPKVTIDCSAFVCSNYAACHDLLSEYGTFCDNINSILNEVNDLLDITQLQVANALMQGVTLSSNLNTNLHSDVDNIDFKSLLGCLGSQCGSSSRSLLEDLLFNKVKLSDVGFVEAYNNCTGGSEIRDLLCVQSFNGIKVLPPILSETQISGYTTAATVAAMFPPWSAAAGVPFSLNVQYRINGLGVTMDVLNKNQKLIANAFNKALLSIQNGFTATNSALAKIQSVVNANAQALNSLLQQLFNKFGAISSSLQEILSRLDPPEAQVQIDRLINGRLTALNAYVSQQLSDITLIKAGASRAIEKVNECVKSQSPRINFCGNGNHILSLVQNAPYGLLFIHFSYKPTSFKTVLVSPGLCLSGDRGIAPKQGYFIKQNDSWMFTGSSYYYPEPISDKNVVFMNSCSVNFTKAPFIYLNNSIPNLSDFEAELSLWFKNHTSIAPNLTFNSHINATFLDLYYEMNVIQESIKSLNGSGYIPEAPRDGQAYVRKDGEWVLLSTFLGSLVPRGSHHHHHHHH

[2] = target: T2, CoV-OC43 Spike ectodomain (OC43-CoV, UniProt P36334 14-1263); experiment: ELISA, coated spike ectodomain
T2 chain: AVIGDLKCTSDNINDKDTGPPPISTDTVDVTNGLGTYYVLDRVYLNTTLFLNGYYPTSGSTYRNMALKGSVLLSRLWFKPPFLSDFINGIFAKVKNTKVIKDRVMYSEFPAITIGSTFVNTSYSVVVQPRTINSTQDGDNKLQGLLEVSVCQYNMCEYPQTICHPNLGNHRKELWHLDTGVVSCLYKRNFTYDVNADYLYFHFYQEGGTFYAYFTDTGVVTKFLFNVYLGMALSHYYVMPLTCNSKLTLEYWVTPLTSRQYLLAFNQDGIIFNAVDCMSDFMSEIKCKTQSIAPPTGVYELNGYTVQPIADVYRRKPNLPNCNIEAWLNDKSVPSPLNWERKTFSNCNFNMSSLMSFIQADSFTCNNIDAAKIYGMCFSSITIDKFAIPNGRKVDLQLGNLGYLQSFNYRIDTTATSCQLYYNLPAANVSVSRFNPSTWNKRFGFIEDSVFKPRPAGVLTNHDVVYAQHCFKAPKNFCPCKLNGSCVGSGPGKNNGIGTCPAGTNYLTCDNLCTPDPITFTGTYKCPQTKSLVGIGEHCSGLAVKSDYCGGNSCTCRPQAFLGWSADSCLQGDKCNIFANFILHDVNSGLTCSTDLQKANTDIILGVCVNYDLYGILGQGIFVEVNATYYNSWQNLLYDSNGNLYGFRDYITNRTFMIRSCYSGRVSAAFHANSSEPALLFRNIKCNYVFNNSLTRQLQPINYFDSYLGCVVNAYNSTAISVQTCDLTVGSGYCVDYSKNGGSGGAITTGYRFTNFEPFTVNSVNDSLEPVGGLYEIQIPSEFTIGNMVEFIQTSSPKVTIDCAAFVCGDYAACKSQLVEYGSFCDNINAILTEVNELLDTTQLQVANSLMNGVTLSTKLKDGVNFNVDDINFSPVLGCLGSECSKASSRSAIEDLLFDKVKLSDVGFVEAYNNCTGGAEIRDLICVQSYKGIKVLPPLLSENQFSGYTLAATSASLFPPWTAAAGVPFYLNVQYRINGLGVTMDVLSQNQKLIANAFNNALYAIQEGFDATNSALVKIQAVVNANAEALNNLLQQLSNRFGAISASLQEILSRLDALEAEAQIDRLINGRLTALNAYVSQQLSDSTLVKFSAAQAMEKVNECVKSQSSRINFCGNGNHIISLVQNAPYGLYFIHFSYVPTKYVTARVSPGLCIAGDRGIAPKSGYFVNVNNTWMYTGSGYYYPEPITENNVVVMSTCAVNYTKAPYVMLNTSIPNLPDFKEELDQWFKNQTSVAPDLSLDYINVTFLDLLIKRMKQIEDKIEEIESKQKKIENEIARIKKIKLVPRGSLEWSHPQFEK

[3] = target: SARS-CoV-2 spike, Beta variant (B.1.351), on virus or pseudotyped particles (SARS-CoV-2); experiment: cell-based or functional assay
[4] = target: SARS-CoV-2 spike, Omicron BA.2 variant, on virus (SARS-CoV-2); experiment: cell-based or functional assay
[5] = target: SARS-CoV-2 spike, Delta+ variant, on pseudotyped particles (SARS-CoV-2); experiment: cell-based or functional assay
[6] = target: SARS-CoV-2 spike, Gamma variant (P.1), on virus or pseudotyped particles (SARS-CoV-2); experiment: cell-based or functional assay
[7] = target: SARS-CoV-2 spike, Omicron BA.1 variant, on virus (SARS-CoV-2); experiment: cell-based or functional assay

| Binder | ELISA OD [1] [OD] | binding result [2] | Pseudoneutralization IC50 [3] [µg/mL] | Pseudoneutralization IC90 [3] [µg/mL] | S-Fuse neutralization IC50 [3] [µg/mL] | S-Fuse neutralization IC90 [3] [µg/mL] | S-Fuse neutralization IC50 [4] [µg/mL] | S-Fuse neutralization IC90 [4] [µg/mL] | Pseudoneutralization IC50 [5] [µg/mL] | Pseudoneutralization IC90 [5] [µg/mL] | Pseudoneutralization IC50 [6] [µg/mL] | Pseudoneutralization IC90 [6] [µg/mL] | S-Fuse neutralization IC50 [6] [µg/mL] | S-Fuse neutralization IC90 [6] [µg/mL] | S-Fuse IC50 [7] | neutralization IC50 [7] [µg/mL] |
| --- | --- | --- | --- | --- | --- | --- | --- | --- | --- | --- | --- | --- | --- | --- | --- | --- |
| Cv2.1169 (recombinant human IgG1) (antibody, also called Cv2.1169 IgG) heavy: QVQLVQSGPEVKKPGTSVKVSCKASGFTFTTSAVQWVRQARGQRLEWIGWIVVGSGNTNYAQKFQERVTITRDMSTTTAYMELSSLRSEDTAVYYCAAPYCSGGTCLDGFDIWGQGTMVTVSSASTKGPSVFPLAPSSKSTSGGTAALGCLVKDYFPEPVTVSWNSGALTSGVHTFPAVLQSSGLYSLSSVVTVPSSSLGTQTYICNVNHKPSNTKVDKKVEPKSCDKTHTCPPCPAPELLGGPSVFLFPPKPKDTLMISRTPEVTCVVVDVSHEDPEVKFNWYVDGVEVHNAKTKPREEQYNSTYRVVSVLTVLHQDWLNGKEYKCKVSNKALPAPIEKTISKAKQPREPQVYTLPPSRDELTKNQVSLTCLVKGFYPSDIAVEWESNGQPENNYKTTPPVLDSDGSFFLYSKLTVDKSRWQQGNVFSCSVMHEALHNHYTQKSLSLSPGK light: not shown | 0.1 | no binding | 0.0142 | 0.0342 | 0.0023 | 0.0072 | 0.332 | 9.69 | 0.0036 | 0.0149 | 0.0096 | 0.0292 | 0.0016 | 0.0086 | 0.253 µg/mL and 0.212 µg/mL | ~0.25 |
| Cv2.3194 (recombinant human IgG1) (antibody, V domains shown) VH: EVQLVESGGGLIQPGGSLRLSCAASGITVTSNYMSWVRQAPGKGLEWVSVIYPGGSTFYADSVKGRFTISRDNSKNTLYLQMNSLRAEDTAVYYCARDLVVYGMDVWGQGTTVTVSS VL: EIVLTQSPGTLSLSPGERATLSCRASQSVSSSYLAWYQQKPGQAPRLLIYGASSRATGIPGRFSGSGSGTDFTLTISRLEPEDFAIYYCQQGVTFGGGTKVEIKR | 0.1 |  | 0.0343 | 0.119 | 0.0052 | 0.02 | 0.0405 | 0.582 | 0.0206 | 0.089 | 0.0099 | 0.0561 |  | 0.0056 | 0.0242 µg/mL |  |
| Cv2.3235 (recombinant human IgG1) (antibody, V domains shown) VH: EVQLVESGGGLIQPGGSLRLSCAASGFTVSRNYMSWVRQAPGKGLEWVSVIYSGGSTFYADSVKGRFTISRDNSKNTLYLQMNSLRAEDTAVYYCARDGDYYGMDVWGQGTTVTVSS VL: DIQMTQSPSFLSASVGDRVTITCRASQGISSFLAWYQQKPGKAPKLLIYGASTLQSGVTSRFSGSGSGTEFTLTISSLQPEDFATYYCQRLDSYPPITFGQGTRLEIKR | 0.2 | no binding |  |  |  |  |  |  |  |  |  |  |  |  |  |  |
| Cv2.5213 (recombinant human IgG1) (antibody, V domains shown) VH: EVQLVESGGGLIQPGGSLRLSCAASGFTVSSNYMSWVRQAPGKGLEWVSLIYSGGSTYYADSVKGRFTISRDNSKNTLYLQMNSLRAEDTAVYYCARDLNYYGMDVWGQGATVTVSS VL: DIQMTQSPSSLSASVGDRVTITCRASQGISSYLAWYQQKPGKAPKLLIYAASTLQSGVPSRFSGSGSGTDFTLTISSLQPEDFATYYCQQLDSYSPFTFGPGTKVDIKR | 0.1 |  |  |  |  |  |  |  |  |  |  |  |  |  |  |  |
| Cv2.1353 (recombinant human IgG1) (antibody, V domains shown) VH: EVQLVESGGGLVQPGGSLRLSCAASGVTVSSNYMNWVRQAPGKGLEWVSVIYSGGSTFYADSVKGRFIISRDNSKNTLYLQMNSLKTEDTAVYYCARDLGPMGFDIWGQGTMVTVSS VL: DIQMTQSPSFLSASVGDRVTITCRASQGISSYLAWYQQKPGKAPKLLIYAASTLQSGVPSRFSGSGSGTEFTLTISSLQPEDFATYYCQQLNSDPPVTFGPGTKVDIKR | 0.1 |  |  |  |  |  |  |  |  |  |  |  |  |  |  |  |
